# B1: human recombinant G6PC3 (glucose-6-phosphatase-β) (Homo sapiens) (protein)
# chain: MESTLGAGIVIAEALQNQLAWLENVWLWITFLGDPKILFLFYFPAAYYASRRVGIAVLWISLITEWLNLIFKWFLFGDRPFWWVHESGYYSQAPAQVHQFPSSCETGPGSPSGHCMITGAALWPIMTALSSQVATRARSRWVRVMPSLAYCTFLLAVGLSRIFILAHFPHQVLAGLITGAVLGWLMTPRVPMERELSFYGLTALALMLGTSLIYWTLFTLGLDLSWSISLAFKWCERPEWIHVDSRPFASLSRDSGAALGLGIALHSPCYAQVRRAQLGNGQKIACLVLAMGLLGPLDWLGHPPQISLFYIFNFLKYTLWPCLVLALVPWAVHMFSAQEAPPIHSS
# notes: full-length G6PC3 cDNA (universal human cDNA) in pEGFP-N1 (XhoI/EcoRI), GFP-G6PC3 fusion, overexpressed in HEK293T; alamethicin-permeabilized cell lysate
# What was measured:
# [1] = substrate: O=C(O)[C@H](O)[C@@H](O)[C@H](O)[C@H](O)COP(=O)(O)O; assay: inorganic phosphate release (molybdate), Michaelis-Menten fit, GFP control subtracted; type: biochemical, Homo sapiens; settings: 50 mM Mops pH 6.5, 25 mM CaCl2, 0.5 mM MnCl2, 2.5 mM EDTA, 37 °C, alamethicin, apparent, cell lysate
# Excerpt: (§1) inorganic phosphate release (molybdate), Michaelis-Menten fit, GFP control subtracted on human recombinant G6PC3 (glucose-6-phosphatase-β)
# [2] = substrate: O=P(O)(O)OC[C@@H](O)[C@@H](O)[C@H](O)[C@@H](O)CO; assay: as above; type: biochemical, Homo sapiens; settings: 50 mM Mops pH 6.5, 25 mM CaCl2, 0.5 mM MnCl2, 2.5 mM EDTA, 37 °C, alamethicin, apparent, cell lysate
# Excerpt: as §1
protein,measurement,setting,value
B1,Km,[1],8.22 ± 1.4 mM
same,Vmax,[1],0.19 µmol/min/mg
same,Km,[2],5.11 ± 0.7 mM
same,Vmax,[2],1.66 µmol/min/mg
